Experimental data as given in publication PMC4454188.

Columns and labels:
[1] = molecular target: Strep-3xFLAG-DotJ (E. coli) (L. pneumophila); assay: SEC
[2] = molecular target: DotIC, C-terminal periplasmic domain of DotI (residues 73-212) (L. pneumophila); assay: SEC-MALS
[3] = molecular target: DotIC, C-terminal periplasmic domain of DotI (residues 73-212) (L. pneumophila); assay: crystal structure
[4] = molecular target: His-TraM (R64 TraM, full length) (plasmid R64); assay: SEC-MALS

## DotI (produced in E. coli with Strep-3xFLAG-DotJ) (natural protein)
[1]
  stoichiometry N (DotI per DotJ): 1.87

## DotIC, C-terminal periplasmic domain of DotI (residues 73-212) (domain or fragment)
[2]
  stoichiometry N: 16
[3]
  stoichiometry N (subunits in a ring (two rings stacked)): 8

## His-TraM (R64 TraM, full length) (natural protein)
[4]
  stoichiometry N: 6
